Experimental data taken from the nanobody polyreactivity screen of Harvey et al. (2022).

Experiment: yeast display, Sf9 membrane polyspecificity reagent, FACS + sequencing; frameworks hold sequencing errors
How it was run: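 A nanobody's polyreactivity label depends on the gate it was sorted from. Yeast display cells were stained with 10% biotinylated, detergent-solubilized Sf9 membrane reagent for 1 hour at 4 °C, enriched on streptavidin microbeads and sorted by FACS. The low and high (top ~1%) gates were set on anti-HA fluorescence for expression and streptavidin fluorescence for reagent binding.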

Row | Sequence | polyreactivity (PSR sort gate)
1 | QVQLVESGGGLVQAGGSLRLSCAASGRIFGTNAMGWYRQAPGKERELVADITSGGSTNYADSVKGRFTISRDNAKNTVYLQMNSLKPEDTAVYDCAADVIGDLRWYRDEYWGQGTQVTVSS | low polyreactivity
2 | QVQLVESGGGLVQAGGSLRLSCAASGRIFGTNARGWYRQAPGKERELVADITSGGSTNYADSVKGRFTISRDNAKNTVYLQMNSLKPEDTAVYYCAADVIGDLRWYRDEYWGQGTQVTVSS | low polyreactivity
3 | QVQLVESGGGLVQAGGSLRLSCAASGRIFGVNAMGWYRPSPGKERELVADISSGGSTNYADSVKGRFTISRDNAKNTVYLQMNSLKPEDTAVYYCNARFRFRYKFPSRNSWGQGTQVTVSS | high polyreactivity
4 | QVQLVESGGGLVQAGGSLRLSCAASGRIFGVNAMGWYRQAPGKERELVAAITRRGGSTYADSVKGRFTISRDNAKNTVYLQMNSLKPEDTAVYYCNAESYYGIFRYKYDYWGQGTQVTVSS | high polyreactivity
5 | QVQLVESGGGLVQAGGSLRLSCAASGRIFGVYAMGWSRQAPGKERELVAAITARGGSTYYADSVKGRFTISRDNAKNTVYLQMNSLKPEDTAVYYCNAARSTSRPYDYWGQGTQVTVSS | high polyreactivity
6 | QVQLVESGGGLVQAGGSLRLSCAASGRIFGVYAMGWYRPAPGKERELVAGINGGDSTYYADSVKGRFTISRDNAKNTVYLQMNSLKPEDTAVYYCAAEADESGSNYDYWGQGTQVTVSS | low polyreactivity
7 | QVQLVESGGGLVQAGGSLRLSCAASGRIFGVYAMGWYRQAPGKDRELVAAITSSGGRTYYADSVKGRFTISRDNAKNTVYLQMNSLKPEDTGVYYCAALGWSRRGKFNYWGQGTQVTVSS | high polyreactivity
8 | QVQLVESGGGLVQAGGSLRLSCAASGRIFGVYAMGWYRQAPGKERELVAAISRGGSTKYADSVKGRFTISRDNAKNTVYLQMNSLKPEDTAVYYCAARRWGRVYTTYTGGYWGQGTQVTVSS | high polyreactivity
9 | QVQLVESGGGLVQAGGSLRLSCAASGRIFGVYAMGWYRQAPGKERELVAAITFNAGSTYYADSVKGRFTISRDNAKNTVYLQMNSLIPEDTAVYYCNAYTESWYPIYFFGWSYTDVDYWGQGTQVTVSS | low polyreactivity
10 | QVQLVESGGGLVQAGGSLRLSCAASGRIFGWYTMGWYRQAPGKERELVAVISSGGSTNYADSVKGRFTISRDNAKNTVYLQMNSLKPEDTAVYYCAAGGQGGDFGDDYWGQGTQVTVSS | high polyreactivity
11 | QVQLVESGGGLVQAGGSLRLSCAASGRIFGYNAMGWYREAPGKERELVAAITGSGGSTYYADSVKGRFTISRDNAKNTVYLQMNSLKPEDTAVYYFATAYAVYHVEYGYWGQGTQVTVSS | low polyreactivity
12 | QVQLVESGGGLVQAGGSLRLSCAASGRIFGYNAMGWYRPAPGKEREVVAAISWNGGSTYYADSVKGRFTISRDNAKNTVYLQMNSLKPEDTAVYYCNADPSDRRYPHTWTKMGYWGQGTQVTVSS | low polyreactivity
13 | QVQLVESGGGLVQAGGSLRLSCAASGRIFGYNAMGWYRQAPGKERELVAAITNGGSTNYADSVKGRFTISRDNAKNTVYLQMNSLKPEDTAVYYCVAYVGSTYSAPEYYWGQGTQVTVSS | low polyreactivity
14 | QVQLVESGGGLVQAGGSLRLSCAASGRIFGYNDMGLYRQAPGKERELVAAINWTGGSTYYADSVKGRFTISRDNAKNTVYLQMNSLKPEDTAVYYCNADARTKWVQTHTDFITDYDYWGQGTQVTVSS | low polyreactivity
15 | QVQLVESGGGLVQAGGSLRLSCAASGRIFGYNGMGWYRQAPGKERELVAAITSGGRTYYADSVKGRFTISRDNAKNTVYLQMNSLKPEDTAVYYCAAYFYQRGYGYVGPYGYWGQGTQVTVSS | high polyreactivity
16 | QVQLVESGGGLVQAGGSLRLSCAASGRIFGYNVMGWYRQAPGKERELVAAISYSGGSTYYADSVKGRFTISRDNAKNTVYLQMNSLKPEDTAVYYCNAGYRGSSKYNYWGQGTQVTVSS | high polyreactivity
17 | QVQLVESGGGLVQAGGSLRLSCAASGRIFGYTMGWYRQAPGKERELVAAISKSGGSTYYADSVKGRFTISRDNAMNTVYLQMNSLKPEDTAVYYCNKPQRILYDYWGQGTQVTVSS | high polyreactivity
